Reference: paper PMC6056500, “Novel interactomics approach identifies ABCA1 as direct target of evodiamine, which increases macrophage cholesterol efflux” (Scientific Reports, 2018)

T1: ATP-binding cassette transporter A1 (ABCA1) (Homo sapiens, UniProt O95477)
T1 construct: recombinant ABCA1 peptide (Abcam #ab125995), C-terminal domain 2085–2245aa
T1 sequence (O95477 2085-2245): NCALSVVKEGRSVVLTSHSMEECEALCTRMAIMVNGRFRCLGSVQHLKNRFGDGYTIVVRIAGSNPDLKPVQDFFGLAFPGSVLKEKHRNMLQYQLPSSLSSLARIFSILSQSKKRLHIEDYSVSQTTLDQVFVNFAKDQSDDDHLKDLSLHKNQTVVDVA

T2: recombinant human retinal dehydrogenase-1 (ALDH1A1) (human, UniProt P00352 1-501)
T2 construct: retinal dehydrogenase 1 (aldehyde dehydrogenase 1 family, member A1), human, recombinant; also called ALDHA1; aldehyde dehydrogenase 1 family, member A1
T2 sequence (looked up): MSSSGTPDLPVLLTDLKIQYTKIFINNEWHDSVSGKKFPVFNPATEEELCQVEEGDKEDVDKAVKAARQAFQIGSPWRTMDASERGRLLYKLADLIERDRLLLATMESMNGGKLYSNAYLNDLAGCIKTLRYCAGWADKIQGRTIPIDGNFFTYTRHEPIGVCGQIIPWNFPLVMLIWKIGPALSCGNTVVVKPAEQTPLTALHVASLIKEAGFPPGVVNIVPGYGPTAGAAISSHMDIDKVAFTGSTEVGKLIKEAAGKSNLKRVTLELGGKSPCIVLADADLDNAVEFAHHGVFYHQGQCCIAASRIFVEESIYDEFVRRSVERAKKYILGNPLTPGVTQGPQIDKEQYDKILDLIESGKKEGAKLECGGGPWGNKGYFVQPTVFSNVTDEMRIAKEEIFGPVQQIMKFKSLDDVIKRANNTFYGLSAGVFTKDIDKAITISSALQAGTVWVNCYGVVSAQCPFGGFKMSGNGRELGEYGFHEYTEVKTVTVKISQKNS

B1: recombinant ABCA1 peptide (Abcam #ab125995, covering C-terminal domain 2085-2245aa) (domain or fragment, UniProt O95477 2085-2245, looked up)
chain: T1 sequence (O95477 2085-2245)
notes: check the Abcam data sheet; source: bought: Abcam #ab125995, recombinant

Columns and labels:
[1] = target: T1, ATP-binding cassette transporter A1 (ABCA1); assay: SPR (Biacore […], immobilized ABCA1 C-terminal peptide on CM5 chip); also identified by NPOT in THP-1 extract
[2] = target: T2, recombinant human retinal …; assay: SPR; Biacore 3000; ABCA1 peptide immobilised on a CM5 chip by amine coupling; proteins dialysed against HBS-E (10 mM Hepes, 150 mM NaCl, 3 mM EDTA); ALDH1A1 injected at 6e-8 to 1e-6 M; 1:1 fit (Langmuir or drifting baseline); conditions: both partners purified

Molecule	Kd [1]	Ka [2]	Kd [2]
CN1c2ccccc2C(=O)N2CCc3c([nH]c4ccccc34)C21 (stereo in doubt) [evodiamine]	810 nM		
B1		1.25e+06 M⁻¹	803 nM
